# B1: feline IgG1a S252Y/D312P/S434Y (antibody, part only; not given: Variable domains, not shown: another chain or arm of the molecule; small tags and cut ends)
# constant: ASTTAPSVFPLAPSCGTTSGATVALACLVLGYFPEPVTVSWNSGALTSGVHTFPAVLQASGLYSLSSMVTVPSSRWLSDTFTCNVAHPPSNTKVDKTVRKTDHPPGPKPCDCPKCPPPEMLGGPSIFIFPPKPKDTLYISRTPEVTCLVVDLGPDDSDVQITWFVDNTQVYTAKTSPREEQFNSTYRVVSVLPILHQPWLKGKEFKCKVNSKSLPSPIERTISKAKGQPHEPQVYVLPPAQEELSRNKVSVTCLIKSFHPPDIAVEWEITGQPEPENNYRTTPPQLDSDGTYFVYSKLSVDRSHWQRGNTYTCSVSHEALHYHHTQKSLTQSPGK
# B2: feline IgG1a S252Y/L314K/S434Y (antibody, part only; not given: Variable domains, not shown: another chain or arm of the molecule; small tags and cut ends)
# constant: ASTTAPSVFPLAPSCGTTSGATVALACLVLGYFPEPVTVSWNSGALTSGVHTFPAVLQASGLYSLSSMVTVPSSRWLSDTFTCNVAHPPSNTKVDKTVRKTDHPPGPKPCDCPKCPPPEMLGGPSIFIFPPKPKDTLYISRTPEVTCLVVDLGPDDSDVQITWFVDNTQVYTAKTSPREEQFNSTYRVVSVLPILHQDWKKGKEFKCKVNSKSLPSPIERTISKAKGQPHEPQVYVLPPAQEELSRNKVSVTCLIKSFHPPDIAVEWEITGQPEPENNYRTTPPQLDSDGTYFVYSKLSVDRSHWQRGNTYTCSVSHEALHYHHTQKSLTQSPGK
# B3: feline IgG1a S252Y/S434R (antibody, part only; not given: Variable domains, not shown: another chain or arm of the molecule; small tags and cut ends)
# constant: ASTTAPSVFPLAPSCGTTSGATVALACLVLGYFPEPVTVSWNSGALTSGVHTFPAVLQASGLYSLSSMVTVPSSRWLSDTFTCNVAHPPSNTKVDKTVRKTDHPPGPKPCDCPKCPPPEMLGGPSIFIFPPKPKDTLYISRTPEVTCLVVDLGPDDSDVQITWFVDNTQVYTAKTSPREEQFNSTYRVVSVLPILHQDWLKGKEFKCKVNSKSLPSPIERTISKAKGQPHEPQVYVLPPAQEELSRNKVSVTCLIKSFHPPDIAVEWEITGQPEPENNYRTTPPQLDSDGTYFVYSKLSVDRSHWQRGNTYTCSVSHEALHRHHTQKSLTQSPGK
# B4: feline IgG1a S428Y/D312P (antibody, part only; not given: Variable domains, not shown: another chain or arm of the molecule; small tags and cut ends)
# constant: ASTTAPSVFPLAPSCGTTSGATVALACLVLGYFPEPVTVSWNSGALTSGVHTFPAVLQASGLYSLSSMVTVPSSRWLSDTFTCNVAHPPSNTKVDKTVRKTDHPPGPKPCDCPKCPPPEMLGGPSIFIFPPKPKDTLSISRTPEVTCLVVDLGPDDSDVQITWFVDNTQVYTAKTSPREEQFNSTYRVVSVLPILHQPWLKGKEFKCKVNSKSLPSPIERTISKAKGQPHEPQVYVLPPAQEELSRNKVSVTCLIKSFHPPDIAVEWEITGQPEPENNYRTTPPQLDSDGTYFVYSKLSVDRSHWQRGNTYTCSVYHEALHSHHTQKSLTQSPGK
# B5: feline IgG1a S428Y/D312P/S434Y (antibody, part only; not given: Variable domains, not shown: another chain or arm of the molecule; small tags and cut ends)
# constant: ASTTAPSVFPLAPSCGTTSGATVALACLVLGYFPEPVTVSWNSGALTSGVHTFPAVLQASGLYSLSSMVTVPSSRWLSDTFTCNVAHPPSNTKVDKTVRKTDHPPGPKPCDCPKCPPPEMLGGPSIFIFPPKPKDTLSISRTPEVTCLVVDLGPDDSDVQITWFVDNTQVYTAKTSPREEQFNSTYRVVSVLPILHQPWLKGKEFKCKVNSKSLPSPIERTISKAKGQPHEPQVYVLPPAQEELSRNKVSVTCLIKSFHPPDIAVEWEITGQPEPENNYRTTPPQLDSDGTYFVYSKLSVDRSHWQRGNTYTCSVYHEALHYHHTQKSLTQSPGK
# B6: feline IgG1a S428Y/Q311W/S434Y (antibody, part only; not given: Variable domains, not shown: another chain or arm of the molecule; small tags and cut ends)
# constant: ASTTAPSVFPLAPSCGTTSGATVALACLVLGYFPEPVTVSWNSGALTSGVHTFPAVLQASGLYSLSSMVTVPSSRWLSDTFTCNVAHPPSNTKVDKTVRKTDHPPGPKPCDCPKCPPPEMLGGPSIFIFPPKPKDTLSISRTPEVTCLVVDLGPDDSDVQITWFVDNTQVYTAKTSPREEQFNSTYRVVSVLPILHWDWLKGKEFKCKVNSKSLPSPIERTISKAKGQPHEPQVYVLPPAQEELSRNKVSVTCLIKSFHPPDIAVEWEITGQPEPENNYRTTPPQLDSDGTYFVYSKLSVDRSHWQRGNTYTCSVYHEALHYHHTQKSLTQSPGK
# B7: feline IgG1a S252H/D312P (antibody, part only; not given: variable domains, not shown: another chain or arm of the molecule; small tags and cut ends)
# constant: ASTTAPSVFPLAPSCGTTSGATVALACLVLGYFPEPVTVSWNSGALTSGVHTFPAVLQASGLYSLSSMVTVPSSRWLSDTFTCNVAHPPSNTKVDKTVRKTDHPPGPKPCDCPKCPPPEMLGGPSIFIFPPKPKDTLHISRTPEVTCLVVDLGPDDSDVQITWFVDNTQVYTAKTSPREEQFNSTYRVVSVLPILHQPWLKGKEFKCKVNSKSLPSPIERTISKAKGQPHEPQVYVLPPAQEELSRNKVSVTCLIKSFHPPDIAVEWEITGQPEPENNYRTTPPQLDSDGTYFVYSKLSVDRSHWQRGNTYTCSVSHEALHSHHTQKSLTQSPGK
# B8: feline IgG1a S252H/L314K (antibody, part only; not given: Variable domains, not shown: another chain or arm of the molecule; small tags and cut ends)
# constant: ASTTAPSVFPLAPSCGTTSGATVALACLVLGYFPEPVTVSWNSGALTSGVHTFPAVLQASGLYSLSSMVTVPSSRWLSDTFTCNVAHPPSNTKVDKTVRKTDHPPGPKPCDCPKCPPPEMLGGPSIFIFPPKPKDTLHISRTPEVTCLVVDLGPDDSDVQITWFVDNTQVYTAKTSPREEQFNSTYRVVSVLPILHQDWKKGKEFKCKVNSKSLPSPIERTISKAKGQPHEPQVYVLPPAQEELSRNKVSVTCLIKSFHPPDIAVEWEITGQPEPENNYRTTPPQLDSDGTYFVYSKLSVDRSHWQRGNTYTCSVSHEALHSHHTQKSLTQSPGK
# B9: feline IgG1a S252H/Q311W (antibody, part only; not given: Variable domains, not shown: another chain or arm of the molecule; small tags and cut ends)
# constant: ASTTAPSVFPLAPSCGTTSGATVALACLVLGYFPEPVTVSWNSGALTSGVHTFPAVLQASGLYSLSSMVTVPSSRWLSDTFTCNVAHPPSNTKVDKTVRKTDHPPGPKPCDCPKCPPPEMLGGPSIFIFPPKPKDTLHISRTPEVTCLVVDLGPDDSDVQITWFVDNTQVYTAKTSPREEQFNSTYRVVSVLPILHWDWLKGKEFKCKVNSKSLPSPIERTISKAKGQPHEPQVYVLPPAQEELSRNKVSVTCLIKSFHPPDIAVEWEITGQPEPENNYRTTPPQLDSDGTYFVYSKLSVDRSHWQRGNTYTCSVSHEALHSHHTQKSLTQSPGK
# B10: feline IgG1a S252H/Q311Y (antibody, part only; not given: variable domains and light chain, not shown: another chain or arm of the molecule; small tags and cut ends)
# constant: ASTTAPSVFPLAPSCGTTSGATVALACLVLGYFPEPVTVSWNSGALTSGVHTFPAVLQASGLYSLSSMVTVPSSRWLSDTFTCNVAHPPSNTKVDKTVRKTDHPPGPKPCDCPKCPPPEMLGGPSIFIFPPKPKDTLHISRTPEVTCLVVDLGPDDSDVQITWFVDNTQVYTAKTSPREEQFNSTYRVVSVLPILHYDWLKGKEFKCKVNSKSLPSPIERTISKAKGQPHEPQVYVLPPAQEELSRNKVSVTCLIKSFHPPDIAVEWEITGQPEPENNYRTTPPQLDSDGTYFVYSKLSVDRSHWQRGNTYTCSVSHEALHSHHTQKSLTQSPGK
# B11: feline IgG1a S252H/S428M (antibody, part only; not given: Variable domains, not shown: another chain or arm of the molecule; small tags and cut ends)
# constant: ASTTAPSVFPLAPSCGTTSGATVALACLVLGYFPEPVTVSWNSGALTSGVHTFPAVLQASGLYSLSSMVTVPSSRWLSDTFTCNVAHPPSNTKVDKTVRKTDHPPGPKPCDCPKCPPPEMLGGPSIFIFPPKPKDTLHISRTPEVTCLVVDLGPDDSDVQITWFVDNTQVYTAKTSPREEQFNSTYRVVSVLPILHQDWLKGKEFKCKVNSKSLPSPIERTISKAKGQPHEPQVYVLPPAQEELSRNKVSVTCLIKSFHPPDIAVEWEITGQPEPENNYRTTPPQLDSDGTYFVYSKLSVDRSHWQRGNTYTCSVMHEALHSHHTQKSLTQSPGK
# B12: feline IgG1a S252H/S428M/D312P (ID No. 221) (antibody, part only; not given: Variable domains, not shown: another chain or arm of the molecule)
# constant: ASTTAPSVFPLAPSCGTTSGATVALACLVLGYFPEPVTVSWNSGALTSGVHTFPAVLQASGLYSLSSMVTVPSSRWLSDTFTCNVAHPPSNTKVDKTVRKTDHPPGPKPCDCPKCPPPEMLGGPSIFIFPPKPKDTLHISRTPEVTCLVVDLGPDDSDVQITWFVDNTQVYTAKTSPREEQFNSTYRVVSVLPILHQPWLKGKEFKCKVNSKSLPSPIERTISKAKGQPHEPQVYVLPPAQEELSRNKVSVTCLIKSFHPPDIAVEWEITGQPEPENNYRTTPPQLDSDGTYFVYSKLSVDRSHWQRGNTYTCSVMHEALHSHHTQKSLTQSPGK
# B13: feline IgG1a S252H/S428M/Q311W (antibody, part only; not given: Variable domains, not shown: another chain or arm of the molecule)
# constant: ASTTAPSVFPLAPSCGTTSGATVALACLVLGYFPEPVTVSWNSGALTSGVHTFPAVLQASGLYSLSSMVTVPSSRWLSDTFTCNVAHPPSNTKVDKTVRKTDHPPGPKPCDCPKCPPPEMLGGPSIFIFPPKPKDTLHISRTPEVTCLVVDLGPDDSDVQITWFVDNTQVYTAKTSPREEQFNSTYRVVSVLPILHWDWLKGKEFKCKVNSKSLPSPIERTISKAKGQPHEPQVYVLPPAQEELSRNKVSVTCLIKSFHPPDIAVEWEITGQPEPENNYRTTPPQLDSDGTYFVYSKLSVDRSHWQRGNTYTCSVMHEALHSHHTQKSLTQSPGK
# B14: feline IgG1a S252H/S428M/Q311Y (antibody, part only; not given: Variable domains, not shown: another chain or arm of the molecule)
# constant: ASTTAPSVFPLAPSCGTTSGATVALACLVLGYFPEPVTVSWNSGALTSGVHTFPAVLQASGLYSLSSMVTVPSSRWLSDTFTCNVAHPPSNTKVDKTVRKTDHPPGPKPCDCPKCPPPEMLGGPSIFIFPPKPKDTLHISRTPEVTCLVVDLGPDDSDVQITWFVDNTQVYTAKTSPREEQFNSTYRVVSVLPILHYDWLKGKEFKCKVNSKSLPSPIERTISKAKGQPHEPQVYVLPPAQEELSRNKVSVTCLIKSFHPPDIAVEWEITGQPEPENNYRTTPPQLDSDGTYFVYSKLSVDRSHWQRGNTYTCSVMHEALHSHHTQKSLTQSPGK
# B15: feline IgG1a D312K (antibody, part only; not given: Variable domains, not shown: another chain or arm of the molecule)
# constant: ASTTAPSVFPLAPSCGTTSGATVALACLVLGYFPEPVTVSWNSGALTSGVHTFPAVLQASGLYSLSSMVTVPSSRWLSDTFTCNVAHPPSNTKVDKTVRKTDHPPGPKPCDCPKCPPPEMLGGPSIFIFPPKPKDTLSISRTPEVTCLVVDLGPDDSDVQITWFVDNTQVYTAKTSPREEQFNSTYRVVSVLPILHQKWLKGKEFKCKVNSKSLPSPIERTISKAKGQPHEPQVYVLPPAQEELSRNKVSVTCLIKSFHPPDIAVEWEITGQPEPENNYRTTPPQLDSDGTYFVYSKLSVDRSHWQRGNTYTCSVSHEALHSHHTQKSLTQSPGK
# How the values were obtained:
# [1] = biological target: feline FcRn complex (FcRn-α subunit and β-microglobulin), biotin labeled (feline); test: SPR, pH 7.4
# [2] = biological target: feline FcRn complex (FcRn-α subunit and β-microglobulin), biotin labeled (feline); test: SPR, pH 6
Binder,Kd [1],Kd [2]
B1,2.26 nM,0.0221 nM
B2,2.85 nM,0.0496 nM
B3,10900 nM,4.12 nM
B4,2760 nM,34.1 nM
B5,864 nM,1.48 nM
B6,1510 nM,3.8 nM
B7,26.7 nM,3.9 nM
B8,20 nM,6.37 nM
B9,25 nM,6.04 nM
B10,36.5 nM,12.1 nM
B11,101 nM,2.65 nM
B12,330 nM,8.22 nM
B13,54.6 nM,3.14 nM
B14,141 nM,5.73 nM
B15,56.1 nM,5.86 nM

# Source: patent US20240400708A1
